No end group written: not given here.
Tests used:
rSdrG(50-597) [1] = biological target: T1, rSdrG(50-597) (Staphylococcus epidermidis K28, UniProt Q9KI13 50-597); assay: Western ligand blot of E. coli lysates, biotin labeled rSdrG(50-597) 0.5 µM
T1 construct: Used biotin labeled in the Western ligand blots and in the ELISAs on protease-treated Fg; also called recombinant SdrG A-region; recombinant form of the N-terminal A-region of SdrG
T1 sequence: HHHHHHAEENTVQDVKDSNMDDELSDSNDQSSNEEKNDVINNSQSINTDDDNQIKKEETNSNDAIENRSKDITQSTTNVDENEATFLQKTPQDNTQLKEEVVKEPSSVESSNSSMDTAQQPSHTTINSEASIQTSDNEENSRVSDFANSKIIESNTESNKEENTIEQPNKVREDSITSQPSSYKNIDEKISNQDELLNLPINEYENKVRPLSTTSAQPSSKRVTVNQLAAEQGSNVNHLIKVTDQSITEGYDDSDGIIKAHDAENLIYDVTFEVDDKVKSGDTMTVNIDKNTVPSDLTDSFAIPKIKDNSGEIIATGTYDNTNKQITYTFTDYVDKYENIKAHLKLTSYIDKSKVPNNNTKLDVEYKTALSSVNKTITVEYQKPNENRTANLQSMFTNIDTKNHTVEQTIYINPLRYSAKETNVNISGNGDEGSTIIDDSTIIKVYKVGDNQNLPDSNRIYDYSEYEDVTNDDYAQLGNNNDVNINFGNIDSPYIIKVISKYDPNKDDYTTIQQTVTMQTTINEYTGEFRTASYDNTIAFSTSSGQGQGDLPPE

rSdrG(50-597) [2] = biological target: T1, rSdrG(50-597); assay: inhibition ELISA, peptide varied, 50 nM rSdrG(50-597), Fg-coated wells
rSdrG(50-597) [3] = biological target: T1, rSdrG(50-597); assay: inhibition ELISA, peptide varied, 50 nM rSdrG(50-597), Fg-coated wells; reference β1-25
rSdrG(50-597) [4] = biological target: T1, rSdrG(50-597); assay: Western ligand blot, biotin labeled rSdrG(50-597)
rSdrG(50-597) [5] = biological target: T1, rSdrG(50-597); assay: fluorescence polarization, increasing rSdrG(50-597) with 10 nM fluorescein-labeled β1-25, three experiments
rSdrG(50-597) [6] = biological target: T1, rSdrG(50-597); assay: Western ligand blot

B1: rβ(1-341) (ligand)
chain: QGVNDNEEGFFSARGHRPLDKKREEAPSLRPAPPPISGGGYRARPAKAAATQKKVERKAPDAGGCLHADPDLGVLCPTGCQLQEALLQQERPIRNSVDELNNNVEAVSQTSSSSFQYMYLLKDLWQKRQKQVKDNENVVNEYSSELEKHQLYIDETVNSNIPTNLRVLRSILENLRSKIQKLESDVSAQMEYCRTPCTVSCNIPVVSGKECEEIIRKGGETSEMYLIQPDSSVKPYRVYCDMNTENGGWTVIQNRQDGSVDFGRKWDPYKQGFGNVATNTDGKNYCGLPGEYWLGNDKISQLTRMGPTELLIEMEDWKGDKVKAHYGGFTVQNEANKYQIS
notes: range 1-341; Expressed in E. coli; whole cell lysate on the blot; also called recombinant truncate encompassing residues 1-341; not shown: N-terminal His-tag or GST fusion
Does B1 bind (rSdrG(50-597) [1])?
Result: binds

B2: peptide β6-20 (peptide)
peptide: NEEGFFSARGHRPLD
notes: Synthetic peptide made in the inventors' laboratory
Does B2 bind (rSdrG(50-597) [2])?
Result: binds

B3: rβ(1-95) (ligand)
chain: QGVNDNEEGFFSARGHRPLDKKREEAPSLRPAPPPISGGGYRARPAKAAATQKKVERKAPDAGGCLHADPDLGVLCPTGCQLQEALLQQERPIRN
notes: range 1-95; Expressed in E. coli; whole cell lysate on the blot; also called recombinant truncate encompassing residues 1-95; not shown: N-terminal His-tag or GST fusion
Does B3 bind (rSdrG(50-597) [1])?
Result: binds

B4: fibrinopeptide B (peptide)
peptide: QGVNDNEEGFFSAR
notes: Bought from Bachem; also called FpB; FpB (1-14)
For B4, which “fold less active than the synthetic peptide β1-25 as inhibitor” value (rSdrG(50-597) [3]) is on record?
Its value is 10 fold.

B5: rβ(25-195) (ligand)
chain: EAPSLRPAPPPISGGGYRARPAKAAATQKKVERKAPDAGGCLHADPDLGVLCPTGCQLQEALLQQERPIRNSVDELNNNVEAVSQTSSSSFQYMYLLKDLWQKRQKQVKDNENVVNEYSSELEKHQLYIDETVNSNIPTNLRVLRSILENLRSKIQKLESDVSAQMEYCRT
notes: range 25-195; Expressed in E. coli; whole cell lysate on the blot; The text says it lacks the N-terminal 25 residues although the name begins at 25; not shown: N-terminal His-tag or GST fusion
Does B5 bind (rSdrG(50-597) [4])?
Result: no binding (tested: 0.5 µM)

B6: rβ(1-220) (ligand)
chain: QGVNDNEEGFFSARGHRPLDKKREEAPSLRPAPPPISGGGYRARPAKAAATQKKVERKAPDAGGCLHADPDLGVLCPTGCQLQEALLQQERPIRNSVDELNNNVEAVSQTSSSSFQYMYLLKDLWQKRQKQVKDNENVVNEYSSELEKHQLYIDETVNSNIPTNLRVLRSILENLRSKIQKLESDVSAQMEYCRTPCTVSCNIPVVSGKECEEIIRKGGE
notes: range 1-220; Expressed in E. coli; whole cell lysate on the blot; also called recombinant truncate encompassing residues 1-220; not shown: N-terminal His-tag or GST fusion
Does B6 bind (rSdrG(50-597) [1])?
Result: binds

B7: rβ(25-95) (ligand)
chain: EAPSLRPAPPPISGGGYRARPAKAAATQKKVERKAPDAGGCLHADPDLGVLCPTGCQLQEALLQQERPIRN
notes: range 25-95; Expressed in E. coli; whole cell lysate on the blot; The text says it lacks the N-terminal 25 residues although the name begins at 25; not shown: N-terminal His-tag or GST fusion
Does B7 bind (rSdrG(50-597) [4])?
Result: no binding (tested: 0.5 µM)

Does NEEGFFSARGHRPLDKKREE (Synthetic peptide (Research Genetics)) [peptide β6-25] bind (rSdrG(50-597) [2])?
Result: binds

Does QGVNDNEEGFFSARGHRPLD (ends and bridges not checked, Synthetic peptide (Research Genetics)) [peptide β1-20] bind (rSdrG(50-597) [2])?
Result: binds

B8: peptide β1-25 (peptide)
peptide: QGVNDNEEGFFSARGHRPLDKKREE
modifications: ends and bridges not checked
notes: Synthetic peptide (Research Genetics); also called unlabeled β1-25; synthetic 25 amino acid peptide representing the N-terminus of the Fg Bβ chain
Does B8 bind (rSdrG(50-597) [2])?
Result: binds

B9: rβ(1-195) (ligand)
chain: QGVNDNEEGFFSARGHRPLDKKREEAPSLRPAPPPISGGGYRARPAKAAATQKKVERKAPDAGGCLHADPDLGVLCPTGCQLQEALLQQERPIRNSVDELNNNVEAVSQTSSSSFQYMYLLKDLWQKRQKQVKDNENVVNEYSSELEKHQLYIDETVNSNIPTNLRVLRSILENLRSKIQKLESDVSAQMEYCRT
notes: range 1-195; Expressed in E. coli; whole cell lysate on the blot; also called recombinant truncate encompassing residues 1-195; not shown: N-terminal His-tag or GST fusion
Does B9 bind (rSdrG(50-597) [1])?
Result: binds

B10: fluorescein-labeled β1-25 peptide (peptide)
peptide: QGVNDNEEGFFSARGHRPLDKKREE
modifications: ends and bridges not checked; also: fluorescein label, position not given here
notes: used at 10 nM in fluorescence polarization; also called fluorescein-labeled N-terminal Bβ chain peptide β1-25; labeled peptide
B10 was tested. Which Kd (rSdrG(50-597) [5]) did it give?
Its Kd is 0.14 µM.

B11: native Bβ chain of fibrinogen (ligand)
chain: QGVNDNEEGFFSARGHRPLDKKREEAPSLRPAPPPISGGGYRARPAKAAATQKKVERKAPDAGGCLHADPDLGVLCPTGCQLQEALLQQERPIRNSVDELNNNVEAVSQTSSSSFQYMYLLKDLWQKRQKQVKDNENVVNEYSSELEKHQLYIDETVNSNIPTNLRVLRSILENLRSKIQKLESDVSAQMEYCRTPCTVSCNIPVVSGKECEEIIRKGGETSEMYLIQPDSSVKPYRVYCDMNTENGGWTVIQNRQDGSVDFGRKWDPYKQGFGNVATNTDGKNYCGLPGEYWLGNDKISQLTRMGPTELLIEMEDWKGDKVKAHYGGFTVQNEANKYQISVNKYRGTAGNALMDGASQLMGENRTMTIHNGMFFSTYDRDNDGWLTSDPRKQCSKEDGGGWWYNRCHAANPNGRYYWGGQYTWDMAKHGTDDGVVWMNWKGSWYSMRKMSMKIRPFFPQQ
notes: Chain of native Fg on a Western ligand blot; also called Fg Bβ chain
Does B11 bind (rSdrG(50-597) [6])?
Result: binds

B12: γ chain of Fg (ligand)
chain: YVATRDNCCILDERFGSYCPTTCGIADFLSTYQTKVDKDLQSLEDILHQVENKTSEVKQLIKAIQLTYNPDESSKPNMIDAATLKSRKMLEEIMKYEASILTHDSSIRYLQEIYNSNNQKIVNLKEKVAQLEAQCQEPCKDTVQIHDITGKDCQDIANKGAKQSGLYFIKPLKANQQFLVYCEIDGSGNGWTVFQKRLDGSVDFKKNWIQYKEGFGHLSPTGTTEFWLGNEKIHLISTQSAIPYALRVELEDWNGRTSTADYAMFKVGPEADKYRLTYAYFAGGDAGDAFDGFDFGDDPSDKFFTSHNGMQFSTWDNDNDKFEGNCAEQDGSGWWMNKCHAGHLNGVYYQGGTYSKASTPNGYDNGIIWATWKTRWYSMKKTTMKIIPFNRLTIGEGQQHHLGGAKQAGDV
notes: Chain of native Fg on a Western ligand blot
Does B12 bind (rSdrG(50-597) [4])?
Result: no binding
